For experiment [1], the target named is T1, 人AXL蛋白胞外段-人IgG1Fc段融合蛋白 (AXL-Fc) (human, UniProt P30530 26-451).
T1 construct: extracellular domain; Expressed in CHO-K1 cells; also called 靶抗原AXL-Fc; not shown: human IgG1 Fc fragment
T1 sequence (looked up): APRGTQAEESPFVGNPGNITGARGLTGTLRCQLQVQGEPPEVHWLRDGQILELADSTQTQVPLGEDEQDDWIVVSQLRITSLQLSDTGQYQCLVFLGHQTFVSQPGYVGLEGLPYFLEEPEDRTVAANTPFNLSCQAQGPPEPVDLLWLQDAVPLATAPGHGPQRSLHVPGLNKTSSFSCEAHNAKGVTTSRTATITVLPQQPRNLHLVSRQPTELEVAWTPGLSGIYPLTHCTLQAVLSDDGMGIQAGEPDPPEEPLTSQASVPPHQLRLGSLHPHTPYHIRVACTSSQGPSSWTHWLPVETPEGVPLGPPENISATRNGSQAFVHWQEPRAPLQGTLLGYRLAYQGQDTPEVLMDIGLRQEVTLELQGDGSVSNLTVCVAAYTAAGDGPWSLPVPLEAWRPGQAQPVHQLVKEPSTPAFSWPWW
In words: ELISA, AXL-Fc coated at 1μg/ml, antibody titrated, OD450. (ELISA stands for enzyme-linked immunosorbent assay.)

A further experiment has as its target T2, BSA(BOVOGEN) (UniProt P02769 25-607).
T2 construct: Control coating
The experiment in a line: ELISA, protein coated at 1μg/ml, C3D3 detected with HRP goat anti-human IgG.

In another experiment the target is T3, A549细胞表面AXL (UniProt P30530 26-894, limits assumed).
T3 construct: whole, on cells; Endogenous AXL on A549 cells, flow cytometry; also called AXL on A549 cells
T3 sequence (looked up): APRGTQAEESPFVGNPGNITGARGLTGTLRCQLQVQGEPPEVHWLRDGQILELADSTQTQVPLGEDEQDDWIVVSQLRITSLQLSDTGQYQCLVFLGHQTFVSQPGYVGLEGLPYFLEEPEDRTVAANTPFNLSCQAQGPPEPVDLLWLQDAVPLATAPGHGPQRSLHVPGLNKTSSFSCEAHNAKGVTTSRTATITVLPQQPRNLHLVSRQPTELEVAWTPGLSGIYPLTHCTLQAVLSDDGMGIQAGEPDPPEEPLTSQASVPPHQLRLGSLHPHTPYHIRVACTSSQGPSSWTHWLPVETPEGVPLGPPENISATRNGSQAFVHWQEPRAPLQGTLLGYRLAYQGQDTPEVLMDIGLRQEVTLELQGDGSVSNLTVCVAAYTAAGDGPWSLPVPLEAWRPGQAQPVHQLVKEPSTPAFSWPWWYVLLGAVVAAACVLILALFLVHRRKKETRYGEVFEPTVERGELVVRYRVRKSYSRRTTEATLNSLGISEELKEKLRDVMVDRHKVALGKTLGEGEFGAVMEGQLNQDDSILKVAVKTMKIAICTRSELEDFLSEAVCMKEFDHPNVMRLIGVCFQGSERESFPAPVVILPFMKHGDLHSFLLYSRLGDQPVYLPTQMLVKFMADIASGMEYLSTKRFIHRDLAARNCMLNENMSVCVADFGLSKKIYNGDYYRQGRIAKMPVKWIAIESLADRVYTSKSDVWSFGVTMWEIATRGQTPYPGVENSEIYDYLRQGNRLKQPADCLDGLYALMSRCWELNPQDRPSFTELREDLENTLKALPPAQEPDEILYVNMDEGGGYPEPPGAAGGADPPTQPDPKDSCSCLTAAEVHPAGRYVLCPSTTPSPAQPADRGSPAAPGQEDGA
In words: flow cytometry on A549 cells, C3D3 diluted to 20μg/ml and mixed with an equal volume of cells, PE mouse anti-human IgG. (In general: Flow cytometry measures light scatter and fluorescence of single cells or particles in a stream.)

T2 sequence (P02769 25-607 limits assumed): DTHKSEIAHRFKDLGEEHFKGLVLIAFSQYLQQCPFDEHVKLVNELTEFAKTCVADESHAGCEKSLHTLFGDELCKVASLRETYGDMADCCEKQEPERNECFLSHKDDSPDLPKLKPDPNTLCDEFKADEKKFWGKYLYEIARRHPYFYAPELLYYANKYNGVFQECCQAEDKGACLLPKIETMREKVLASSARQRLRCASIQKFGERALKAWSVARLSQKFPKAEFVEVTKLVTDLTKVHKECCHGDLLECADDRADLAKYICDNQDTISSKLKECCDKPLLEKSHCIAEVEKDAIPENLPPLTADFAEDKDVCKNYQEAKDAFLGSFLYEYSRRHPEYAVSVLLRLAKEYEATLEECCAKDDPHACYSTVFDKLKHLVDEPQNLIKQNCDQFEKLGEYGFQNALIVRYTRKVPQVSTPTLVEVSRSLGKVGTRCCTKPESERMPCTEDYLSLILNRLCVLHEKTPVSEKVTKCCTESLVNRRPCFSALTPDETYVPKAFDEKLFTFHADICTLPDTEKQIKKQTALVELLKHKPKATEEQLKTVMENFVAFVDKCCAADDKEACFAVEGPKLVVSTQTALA

B1: 3D3抗体 (antibody, V domains shown)
VH: EVKLLESGGGLVQPEGSLKLSCVASGFDFRRYWMSWVRQAPGKGLEWIGEINPAGSTINQTPSLKDKFIISRDNAKNTLYLQMSKVRSEDTALYYCVRLSVVFYYYGMDYWGQGTSVTVSS
VL: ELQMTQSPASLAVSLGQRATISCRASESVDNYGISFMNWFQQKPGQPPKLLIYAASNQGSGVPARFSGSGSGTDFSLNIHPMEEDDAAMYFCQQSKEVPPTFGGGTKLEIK
notes: also called 3D3 antibody
For the molecule B1, in experiment [1], the binding result is given as “binds”.

B2: C3D3(Chimeric 3D3)抗体 (antibody, human IgG1, kappa, V domains shown)
VH: B1 VH
VL: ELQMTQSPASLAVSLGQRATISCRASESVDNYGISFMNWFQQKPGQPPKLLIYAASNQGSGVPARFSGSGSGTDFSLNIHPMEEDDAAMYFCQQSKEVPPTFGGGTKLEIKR
notes: Copies of 2 follow from the whole IgG format, not from a printed number; also called C3D3 antibody
Take B2: the binding result with BSA(BOVOGEN) is “no binding”; with A549细胞表面AXL it was “binds”; in experiment [1], “binds”.

The record behind these values is patent CN107759691A (HANGZHOU SHANGJIAN BIOTECHNOLOGY CO LTD, dated 2018).
